Assay results as given in the supplement of paper PMC10126150.
± gives the standard deviation of the averaged measurements.

tested on: ATP; assay: switch fluorescence ratio, 500 uM ATP over buffer (Cy3 cluster intensity, sum of 5 cycles each) (fold (ratio)); higher = stronger signal-on switching upon ATP binding; sequences stand for … in TCGTCGGCAGCGTCAGATGTGTATAAGAGACAGTTTTTTTTTTTTTTTTTTTTTTTTT…TC; conditions: aptamer strand: ATP DNA aptamer (quencher-CACCTGGGGGAGTATTGCGGAGGAAGG + anchor), 100 nM annealed; ATP concentration: 500 uM
Outline: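 The fluorescence ratio divides summed target-cycle Cy3 intensity by summed buffer-cycle Cy3 intensity for each cluster and is averaged per switch-domain sequence. Cy3-labelled switching-strand clusters on a modified Illumina MiSeq flow-cell were annealed to 100 nM quencher-labelled ATP aptamer, then imaged in selection buffer and again after 15 min with 500 uM ATP at 22 °C. Five such cycles were run, with NaOH stripping and re-annealing between them, and clusters outside 100-1000 RFU were excluded.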
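Further: ATP exposure 15 min at 22 °C before imaging.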

In order of rising switch fluorescence ratio:
1. AGATTCTGTT  0.945 ± 0.022
2. CTGTTTCACA  0.949 ± 0.046
3. GGGGCGGACT  0.952 ± 0.04
4. ATAGTTGGA  0.953 ± 0.019
5. GGGTATGGGC  0.955 ± 0.014
6. TTGATGCAGC  0.958 ± 0.054
7. TCGTTCGAGG  0.958 ± 0.013
8. TTTTGACACG  0.959 ± 0.03
9. ATTTGGCGCG  0.964 ± 0.024
10. GAGAATCGGA  0.965 ± 0.012
11. AATGATTGAA  0.968 ± 0.023
12. GGTTAAGTTT  0.969 ± 0.025
13. TGAAAGTTTT  0.971 ± 0.025
14. GGATGGTGAG  0.972 ± 0.011
15. CTTAATTTTG  0.973 ± 0.027
16. AGTTTTGGCG  0.973 ± 0.0047
17. TTAAAAGCGA  0.974 ± 0.023
18. GCGATAGTGG  0.974 ± 0.011
19. GGGAGATTAA  0.975 ± 0.013
20. TTATGTTCGC  0.975 ± 0.034
21. CGTCTGTCTG  0.976 ± 0.033
22. AGGATCGGCG  0.9769 ± 0.0046
23. AGCCACATGG  0.98 ± 0.031
24. GGGGTGATGT  0.9803 ± 0.0066
25. TGTGTTGGGA  0.98 ± 0.016
26. GAGCTAGGAA  0.981 ± 0.058
27. TAAGTGCGGA  0.982 ± 0.011
28. ACTGCTGTTT  0.9834 ± 0.0026
29. ATTTCCGTTT  0.984 ± 0.013
30. TTTGACTGGT  0.984 ± 0.027
31. TTTATCCAAT  0.984 ± 0.037
32. AGTTTGGGT  0.985 ± 0.032
33. GGGTAAGGTT  0.985 ± 0.028
34. TAGGTTCCTT  0.986 ± 0.035
35. ATAGGTTTTG  0.9864 ± 0.004
36. ATTTAATTGT  0.986 ± 0.053
37. TTGGGTATTT  0.986 ± 0.021
38. TTTTATTCTT  0.987 ± 0.016
39. ATTGGGGGAG  0.987 ± 0.033
40. GGGAGAGTGG  0.9868 ± 0.0015
41. TTTTGATGAG  0.987 ± 0.021
42. TGAGTTAAAG  0.9876 ± 0.0082
43. TTGATTGGGG  0.989 ± 0.029
44. TAAAAGGATT  0.989 ± 0.042
45. TTGGTAGCTA  0.9889 ± 0.0098
46. GGTGACCTTG  0.9891 ± 0.0037
47. GGGGGGAGAG  0.989 ± 0.045
48. CGAGTCCGTT  0.99 ± 0.018
49. CCGGACAGCG  0.99 ± 0.038
50. GTCGTTTGGG  0.991 ± 0.027
51. CATGTATTTT  0.991 ± 0.041
52. ATTTTGTCGC  0.992 ± 0.016
53. CTTTGGTTGA  0.995 ± 0.031
54. ATGGGGTAGC  0.995 ± 0.012
55. ATCGCGTCGT  0.995 ± 0.035
56. GGGGGGTCTC  0.996 ± 0.029
57. TAGAGATCTG  0.996 ± 0.014
58. GTCGGGGTAC  0.997 ± 0.034
59. ATAGCGTATT  0.998 ± 0.049
60. ATGAGCCGAG  0.9983 ± 0.009
61. AAGAGAAAGT  0.998 ± 0.028
62. GGGGGTTACG  0.998 ± 0.03
63. CAAAAAACGA  0.999 ± 0.066
64. TGGTATCAGC  0.999 ± 0.048
65. GATCGGGTTG  0.999 ± 0.026
66. TCAACTATAG  0.999 ± 0.01
67. GCTTCAGGG  1 ± 0.019
68. ATTTTTAAGA  1 ± 0.012
69. GCGCTAGTTT  1 ± 0.016
70. GTGGGATTAG  1 ± 0.028
71. TTGATAGGCC  0.9998 ± 0.0049
72. ACCTGTATTT  1 ± 0.02
73. CGGGGCATGG  1 ± 0.039
74. TGTTGTTTTG  1 ± 0.042
75. TCAGGATTTC  1 ± 0.036
76. CTGTTTGGGG  1.004 ± 0.0028
77. CAGGTGGTCA  1 ± 0.021
78. GGAATGGGTG  1 ± 0.057
79. GCCTTGGGGG  1 ± 0.028
80. ATGGGGTGCG  0.9998 ± 0.0014
81. ATCGGTCTTG  1 ± 0.004
82. AAATTAGAGG  1 ± 0.026
83. ACTAGGCCGA  1.01 ± 0.044
84. CTTATAGTTT  1.01 ± 0.016
85. TTGGGTGAAG  1.01 ± 0.025
86. TTGAACCCGA  1.01 ± 0.023
87. ATAGTATGTA  1.01 ± 0.031
88. GCAAAAGGTT  1.01 ± 0.022
89. TTTGTAAGAA  1.009 ± 0.006
90. TGAGGGAATT  1.01 ± 0.018
91. CCAAGGTCCT  1.01 ± 0.014
92. GTGTTTACTG  1.01 ± 0.054
93. GGGTTTGAGA  1.005 ± 0.0042
94. ATCGGTTACC  1.011 ± 0.0045
95. TTAAGCTTAG  1.01 ± 0.015
96. AAAGTTGATT  1.01 ± 0.03
97. CGGGTATAGG  1.013 ± 0.01
98. CGTAGTTTCG  1.013 ± 0.008
99. CGCTTTTTTG  1.01 ± 0.032
100. AAGTCATGGG  1.01 ± 0.031
101. AGGTAGGGGT  1.01 ± 0.02
102. TCTTATTGGT  1.01 ± 0.013
103. AAACTTGTAA  1.01 ± 0.027
104. CGGTTTGGAT  1.01 ± 0.035
105. GCTATGAATG  1.01 ± 0.024
106. ATCTGATATT  1.01 ± 0.033
107. ATTTTGCGAT  1.01 ± 0.015
108. CTTGTCGTTC  1.01 ± 0.026
109. AGCGCATTGT  1.02 ± 0.031
110. CACGGGGGGG  1.02 ± 0.025
111. TACGAATTTT  1.02 ± 0.012
112. GGTGTTGTTG  1.017 ± 0.0023
113. GGCCAACCCG  1.0157 ± 0.00094
114. TCGATAGACG  1.02 ± 0.018
115. CTGGGGCGTG  1.02 ± 0.014
116. GCTAGTAAAA  1.02 ± 0.029
117. AGCATTGGCT  1.016 ± 0.0011
118. GAGCTTCTCT  1.0194 ± 9.9e-05
119. CGCTATGTGG  1.02 ± 0.041
120. TAAAATAAAT  1.016 ± 0.0018
121. TTTTTCGTCT  1.02 ± 0.028
122. ACTTGGTACT  1.02 ± 0.018
123. AAAATATTTA  1.02 ± 0.012
124. TTGCCTGGGG  1.02 ± 0.013
125. GAGCTTTTGG  1.03 ± 0.068
126. TGGGTTTAAT  1.03 ± 0.018
127. TTTTAAGCCC  1.03 ± 0.046
128. GCTATGAGAC  1.03 ± 0.055
129. GAGAGGGATT  1.03 ± 0.015
130. CATCTTAGCT  1.035 ± 0.0054
131. CGGGGCAAAA  1.04 ± 0.027
132. TTGTGGCCGT  1.039 ± 0.0035
133. TTTGGCTTCG  1.042 ± 0.0038
134. ACATGACATG  1.04 ± 0.03
135. TAAGCAGCGA  1.045 ± 0.0036
136. TGGAATGGTG  1.05 ± 0.015
137. CATCGGTATA  1.06 ± 0.017
138. GCGTTACTTA  1.06 ± 0.018
139. CTGGGATGGG  1.06 ± 0.13
140. GCTCCTGAGG  1.073 ± 0.0081
141. ACTGAGACGA  1.07 ± 0.044
142. TTTTCCTTCT  1.09 ± 0.089
143. TCGAAGTGAA  1.09 ± 0.018
144. GTTTCGGTTT  1.1 ± 0.096
145. GAAGTAAGTC  1.104 ± 0.0051
146. GGGTCCTACG  1.12 ± 0.037
147. ACGGTAATTC  1.184 ± 0.011
148. TCTTCACTAC  1.25 ± 0.06
149. TTTTACTTAA  1.28 ± 0.37
150. TTATTGGCAA  1.29 ± 0.34
151. ATCTCGCGCA  1.36 ± 0.11
152. TGCCGGGAGT  1.41 ± 0.61
153. CCGGACGTTC  1.53 ± 0.042
154. TCTGACAATC  1.91 ± 0.24
155. CCGCCTTAAT  2.21 ± 0.084
156. TGCAATTACT  3.21 ± 0.24
157. CGACGATGAC  5.46 ± 0.077
